Results from patent US20240376186A1 (AARHUS UNIVERSITET, published 2024).
One block for each binder: values may come before it.

Tests used:
[1] = biological target: T1, C3b (human, UniProt P01024 23-667; P01024 749-1663); experiment: bio-layer interferometry, binder on anti-penta his biosensors; reference EWE-hC3Nb1 on C3b
T1 construct: also called human C3b
Experimental: FIGS. 8A-8B Bio-layer interferometry-based analysis of EWEμH. (FIG. 8A) Anti-penta his biosensors were coated with EWEμH. The sensors were transferred into a dilution series from 1.5625-50 nM C3b. (FIG. 8B) Anti-penta his biosensors were coated with EWEμH and transferred into an iC3b dilution series ranging from 3.125-50 nM.
(§1) Bio-layer interferometry experiments. All experiments were performed in 20 mM HEPES pH 7.5, […]. All experiments were performed on an Octet RED96 (Fortébio Pall Corporation) instrument operating at 30° C., shaking at 1000 rpm. EWE-hC3Nb1, EWEμH or EWEnH was immobilized on anti-penta his biosensor (Fortebio Pall Corporation) and the sensors were transferred into dilution series of C3b or iC3b. Measurements of 0 nM analyte were subtracted from sensorgrams for normalization and the sensorgrams were fitted to a 1:1 binding model using the GraphPad Prism (version 6.01) software.

[2] = biological target: T1, C3b; experiment: bio-layer interferometry, summary of affinities (FIG. 10)
Experimental: FIGS. 9A-9B Bio-layer interferometry-based analysis of EWEnH. (FIG. 9A) Anti-penta his biosensors were coated with EWEnH. The sensors were transferred into a dilution series from 3.125-100 nM C3b. (FIG. 9B) Anti-penta his biosensors were coated with EWEnH. The iC3b concentration tested ranged from 6.25-100 nM.
as §1

[3] = biological target: T2, native C3 (human, UniProt P01024 23-667; P01024 668-1663); experiment: size exclusion chromatography
T2 construct: also called Complement component 3
T2 sequence (P01024 23-667, chain 1 of 2): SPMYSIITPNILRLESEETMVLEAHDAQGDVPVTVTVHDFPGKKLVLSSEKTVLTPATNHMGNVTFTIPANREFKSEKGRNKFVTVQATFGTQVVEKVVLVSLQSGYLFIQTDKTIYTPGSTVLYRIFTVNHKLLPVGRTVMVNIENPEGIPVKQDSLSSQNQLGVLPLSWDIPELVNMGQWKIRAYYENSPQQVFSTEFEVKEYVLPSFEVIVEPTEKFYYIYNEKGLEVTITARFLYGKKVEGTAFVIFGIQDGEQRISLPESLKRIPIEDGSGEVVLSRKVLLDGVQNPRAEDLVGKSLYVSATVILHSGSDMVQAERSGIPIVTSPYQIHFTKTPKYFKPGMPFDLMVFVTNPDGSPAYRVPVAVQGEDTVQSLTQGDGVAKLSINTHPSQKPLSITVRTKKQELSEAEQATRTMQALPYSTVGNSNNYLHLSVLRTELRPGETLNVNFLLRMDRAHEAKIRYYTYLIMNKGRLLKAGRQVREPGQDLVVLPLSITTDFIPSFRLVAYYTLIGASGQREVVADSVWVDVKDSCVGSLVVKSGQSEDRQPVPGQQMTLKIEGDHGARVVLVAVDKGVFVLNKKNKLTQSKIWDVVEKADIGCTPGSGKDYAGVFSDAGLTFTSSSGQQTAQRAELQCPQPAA
T2 sequence (P01024 668-1663, chain 2 of 2): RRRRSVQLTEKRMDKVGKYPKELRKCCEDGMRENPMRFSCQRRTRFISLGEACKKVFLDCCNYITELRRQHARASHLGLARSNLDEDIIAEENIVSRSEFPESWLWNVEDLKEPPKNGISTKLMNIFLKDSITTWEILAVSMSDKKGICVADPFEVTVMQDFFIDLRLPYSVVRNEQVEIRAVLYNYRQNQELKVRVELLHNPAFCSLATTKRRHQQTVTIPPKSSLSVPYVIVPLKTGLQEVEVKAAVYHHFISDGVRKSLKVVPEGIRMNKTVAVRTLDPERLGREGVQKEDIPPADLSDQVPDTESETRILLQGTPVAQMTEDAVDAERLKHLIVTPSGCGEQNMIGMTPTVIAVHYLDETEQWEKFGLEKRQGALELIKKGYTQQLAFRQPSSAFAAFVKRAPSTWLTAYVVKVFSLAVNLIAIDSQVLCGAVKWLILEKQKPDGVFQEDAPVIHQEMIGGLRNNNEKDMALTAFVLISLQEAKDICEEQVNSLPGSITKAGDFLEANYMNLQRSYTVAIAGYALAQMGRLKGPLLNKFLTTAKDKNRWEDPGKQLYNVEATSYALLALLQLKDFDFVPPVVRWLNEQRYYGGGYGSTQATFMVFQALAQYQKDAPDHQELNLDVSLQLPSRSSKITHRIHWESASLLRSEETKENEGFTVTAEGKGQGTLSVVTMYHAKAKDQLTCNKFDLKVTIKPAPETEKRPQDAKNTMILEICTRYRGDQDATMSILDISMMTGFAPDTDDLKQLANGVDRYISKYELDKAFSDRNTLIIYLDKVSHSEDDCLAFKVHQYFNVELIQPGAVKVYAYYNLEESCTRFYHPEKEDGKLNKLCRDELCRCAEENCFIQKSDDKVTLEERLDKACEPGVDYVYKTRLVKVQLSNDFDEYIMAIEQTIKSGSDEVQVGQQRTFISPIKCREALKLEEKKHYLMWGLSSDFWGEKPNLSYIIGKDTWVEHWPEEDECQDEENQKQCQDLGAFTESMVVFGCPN
Experimental: (§2) Size exclusion chromatography assay. 200 μg C3b was mixed with a 2-fold molar excess of EWE-hC3Nb1 or left untreated. The mix was diluted to 400 μL in 20 mM HEPES pH 7.5, 150 mM NaCl and applied to a Superdex 200 increase (GE Healthcare) column equilibrated in dilution buffer. SEC assaying binding of EWE-hC3Nb1 to native C3 was performed similarly. Peak fraction were analyzed by SDS PAGE.

[4] = biological target: T1, C3b; experiment: size exclusion chromatography, 2-fold molar excess of EWE-hC3Nb1; SDS-PAGE of peak fractions confirmed the complex
Experimental: as §2

T1 sequence (P01024 23-667 limits assumed, chain 1 of 2): as the sequence (P01024 23-667, chain 1 of 2) above
T1 sequence (P01024 749-1663 limits assumed, chain 2 of 2): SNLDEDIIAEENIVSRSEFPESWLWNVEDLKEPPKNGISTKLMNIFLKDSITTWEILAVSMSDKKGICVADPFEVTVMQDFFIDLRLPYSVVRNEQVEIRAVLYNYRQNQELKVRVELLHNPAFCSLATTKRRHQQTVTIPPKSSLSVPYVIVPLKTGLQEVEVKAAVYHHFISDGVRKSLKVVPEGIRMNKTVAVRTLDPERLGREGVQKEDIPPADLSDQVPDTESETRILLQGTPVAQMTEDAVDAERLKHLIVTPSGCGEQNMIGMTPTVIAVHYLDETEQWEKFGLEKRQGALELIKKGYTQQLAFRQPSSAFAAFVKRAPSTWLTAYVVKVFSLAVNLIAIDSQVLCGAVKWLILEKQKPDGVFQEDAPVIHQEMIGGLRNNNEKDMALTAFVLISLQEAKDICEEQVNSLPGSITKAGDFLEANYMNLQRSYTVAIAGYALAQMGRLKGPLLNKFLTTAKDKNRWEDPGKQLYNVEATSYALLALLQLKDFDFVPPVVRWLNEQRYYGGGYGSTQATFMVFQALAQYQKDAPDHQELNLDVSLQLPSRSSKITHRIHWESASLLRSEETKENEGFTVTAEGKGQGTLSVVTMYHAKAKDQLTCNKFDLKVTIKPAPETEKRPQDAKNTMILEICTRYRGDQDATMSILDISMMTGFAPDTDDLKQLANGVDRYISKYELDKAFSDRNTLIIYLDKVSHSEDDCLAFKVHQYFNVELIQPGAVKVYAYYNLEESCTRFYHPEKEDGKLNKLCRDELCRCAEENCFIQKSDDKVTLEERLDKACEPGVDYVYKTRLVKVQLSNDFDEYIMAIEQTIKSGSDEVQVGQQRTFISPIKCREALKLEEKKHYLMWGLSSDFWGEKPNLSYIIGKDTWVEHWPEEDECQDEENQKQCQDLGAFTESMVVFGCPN

- fold stronger binding than EWE-hC3Nb1 [1]: ~10 fold
B1: EWEµH (other)
chain: EWEQVQLVETGGGLVQAGGSLRLSCAASGSIFSINAMGWFRQAPGKEREFVATINRSGGRTYYADSVKGRFTISRDNGKNMVYLQMHSLKPEDTAIYYCAAGTGWSPQTDNEYNYWGQGTQVTVSSGGGGSGGGGSGGGGSGGGGSRPCGHPGDTPFGTFTLTGGNVFEYGVKAVYTCNEGYQLLGEINYRECDTDGWTNDIPICEVVKCLPVTAPENGKIVSSAMEPDREYHFGQAVRFVCNSGYKIEGDEEMHCSDDGFWSKEKPKCVEISCKSPDVINGSPISQKIIYKENERFQYKCNMGYEYSERGDAVCTESGWRPLPSCEEAGGGGGGGGGGGGGKCGPPPPIDNGDITSFPLSVYAPASSVEYQCQNLYQLEGNKRITCRNGQWSEPPKCLHPCVISREIMENYNIALRWTAKQKLYSRTGESVEFVCKRGYRLSSRSHTLRTTCWDGKLEYPTCAKRENLYFQG
notes: expressed in HEK293 cells; also called EWEuH; fusion EWEµH; not shown: His tag implied by HisTrap purification and capture on anti-penta his biosensors

- binding result [2]: binds
B2: EWEnH (other)
chain: EWEQVQLVETGGGLVQAGGSLRLSCAASGSIFSINAMGWFRQAPGKEREFVATINRSGGRTYYADSVKGRFTISRDNGKNMVYLQMHSLKPEDTAIYYCAAGTGWSPQTDNEYNYWGQGTQVTVSSGGGGSGGGGSGGGGSGGGGSRPCGHPGDTPFGTFTLTGGNVFEYGVKAVYTCNEGYQLLGEINYRECDTDGWTNDIPICEVVKCLPVTAPENGKIVSSAMEPDREYHFGQAVRFVCNSGYKIEGDEEMHCSDDGFWSKEKPKCVEISCKSPDVINGSPISQKIIYKENERFQYKCNMGYEYSERGDAVCTESGWRPLPSCEEA
notes: expressed in HEK293 cells; also called fusion protein EWEnH; not shown: His tag implied by HisTrap purification and capture on anti-penta his biosensors

- binding result [4]: binds
B3: EWE-hC3Nb1 (VHH)
VHH: QVQLVETGGGLVQAGGSLRLSCAASGSIFSINAMGWFRQAPGKEREFVATINRSGGRTYYADSVKGRFTISRDNGKNMVYLQMHSLKPEDTAIYYCAAGTGWSPQTDNEYNYWGQGTQVTVSS
notes: hC3Nb1 with an N-terminal Glu-Trp-Glu motif; expressed in E. coli; also called single domain antibody EWE-hC3Nb1; EWE-hC3Nb1 nanobody; not shown: His tag implied by HisTrap purification and capture on anti-penta his biosensors
- binding result [3]: no binding (tested: 2-fold molar excess of EWE-hC3Nb1)
